Results reported in patent US20230158165.

Experiments:
[1] = system: PEG12 construct peptide (Peg12-Val-Cit-Tregitope-Nle), before addition of MPA and HSA
[2] = system: PEG2 construct peptide (KKKK-Peg2-Val-Cit-Tregitope-Nle), before addition of MPA and HSA

“Recombinant human Cathepsin B (catalog 953-CY of R&D Systems)” was tested, and the “cleavage of the Val-Cit site, evaluated by mass spec” value [1] was “For the PEG12 product, successful cleavage is demonstrated” and the “cleavage of the Val-Cit site, evaluated by mass spec” value [2] was “the PEG2 peptide did not have successful cleavage, and further modification of the Cathepsin B protocol did not produce successful cleavage”.
